The source of these data is PMC5837041 (Molecular cell, 2017).

Residue numbers refer to the chain shown, from its start. Names may count otherwise.

One assay concerns the target T1, Vms1 (Vms1^1-417) (Saccharomyces cerevisiae, UniProt Q04311).
T1 sequence (Q04311 1-417): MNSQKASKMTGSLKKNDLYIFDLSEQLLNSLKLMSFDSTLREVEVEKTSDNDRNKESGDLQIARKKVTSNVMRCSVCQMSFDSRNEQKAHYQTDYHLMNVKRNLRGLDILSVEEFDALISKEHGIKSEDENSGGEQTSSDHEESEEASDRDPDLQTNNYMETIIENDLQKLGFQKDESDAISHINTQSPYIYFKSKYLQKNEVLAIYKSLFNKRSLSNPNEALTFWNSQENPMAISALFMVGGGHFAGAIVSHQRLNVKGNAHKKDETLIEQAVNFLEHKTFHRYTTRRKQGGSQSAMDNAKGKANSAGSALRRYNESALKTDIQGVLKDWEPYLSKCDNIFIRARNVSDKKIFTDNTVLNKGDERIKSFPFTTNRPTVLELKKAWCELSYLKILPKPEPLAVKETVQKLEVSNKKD
The assay is described as follows: lipid blot on nitrocellulose. It is filed as binding. The note with it: TBS pH 7.5, 4 °C, 3% BSA (blot); competitive with LRS for the MTD.

The target in assay [1] is T2, C-terminal fragment of PreScission-cleaved His10-Vms1(1-182-PP-417)-HA (S. cerevisiae, UniProt Q04311 183-417).
T2 sequence (looked up): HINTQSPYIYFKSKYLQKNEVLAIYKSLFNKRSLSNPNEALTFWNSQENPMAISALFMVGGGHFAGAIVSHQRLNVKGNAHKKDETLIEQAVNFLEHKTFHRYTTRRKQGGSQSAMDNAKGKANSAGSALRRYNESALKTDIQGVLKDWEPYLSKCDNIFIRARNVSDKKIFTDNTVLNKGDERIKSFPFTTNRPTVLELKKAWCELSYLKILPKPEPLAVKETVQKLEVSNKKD
As to the kind of experiment: SEC. (In general: In gel filtration, larger molecules generally elute earlier.)

The target in assay [2] is T3, C-terminal fragment of PreScission-cleaved His10-Vms1(1-182-PP-417, C387A, E25C, S228C)-HA (S. cerevisiae, UniProt Q04311 183-417, S228C | C387A).
T3 sequence (looked up): T2 sequence (looked up) with S46C, C205A
As to the kind of experiment: cross-linking.

The target of assay [3] is T4, C-terminal fragment of PreScission-cleaved His10-Vms1(1-182-PP-417, C387A, K32C, N218C)-HA (S. cerevisiae, UniProt Q04311 183-417, N218C | C387A).
T4 sequence (looked up): T2 sequence (looked up) with N36C, C205A
The assay is described as follows: cross-linking.

Assay [4] addresses T5, C-terminal fragment of PreScission-cleaved His10-Vms1(1-182-PP-417, C387A, K32C, T224C)-HA (S. cerevisiae, UniProt Q04311 183-417, T224C | C387A).
T5 sequence (looked up): T2 sequence (looked up) with T42C, C205A
The assay is described as follows: cross-linking.

Regarding `CC(C)[C@@H](C)/C=C/[C@@H](C)[C@H]1CC[C@@H]2[C@]1(C)CC[C@H]1[C@]23C=C[C@]2(C[C@@H](O)CC[C@]12C)OO3` [EP, ergosterol peroxide], the “lipid blot on nitrocellulose; liposome floatation assay” value at Vms1 (Vms1^1-417) is “Vms1 displayed comparable binding to nitrocellulose-spotted commercial EP and the purified C28H44O3”.

B1: N-terminal fragment of PreScission-cleaved His10-Vms1(1-182-PP-417)-HA (domain or fragment, S. cerevisiae, UniProt Q04311 1-182, looked up)
chain: MNSQKASKMTGSLKKNDLYIFDLSEQLLNSLKLMSFDSTLREVEVEKTSDNDRNKESGDLQIARKKVTSNVMRCSVCQMSFDSRNEQKAHYQTDYHLMNVKRNLRGLDILSVEEFDALISKEHGIKSEDENSGGEQTSSDHEESEEASDRDPDLQTNNYMETIIENDLQKLGFQKDESDAIS
As to B1, the binding result in assay [1] was “binds”.

B2: N-terminal fragment of PreScission-cleaved His10-Vms1(1-182-PP-417, C387A, E25C, S228C)-HA (domain or fragment, S. cerevisiae, UniProt Q04311 1-182, looked up)
chain: B1 chain with E25C
Take B2: in assay [2], the binding result was “binds”.

B3: N-terminal fragment of PreScission-cleaved His10-Vms1(1-182-PP-417, C387A, K32C, T224C or N218C)-HA (domain or fragment, S. cerevisiae, UniProt Q04311 1-182, looked up)
chain: B1 chain with K32C
Consider B3, for which the binding result in assay [3] and in assay [4] was “binds” throughout.
